Experimental data published in publication PMC5737367.

Biological target: Rif1 1709-1916 (UniProt P29539)
Assay: GST pull-down from yeast lysate
Details: reference: wild type; sites S731

Rap1 (from UniProt P11938) S731A
binding against the reference: weaker
